Our source for the % Inhibition values is patent US20250197490A1, “ANTI-CORTICOTROPIN-RELEASING HORMONE ANTIBODIES AND USE IN CONGENITAL ADRENAL HYPERPLASIA” (HBM ALPHA THERAPEUTICS, INC., priority 2021, published 2025).

Test [1] has as its target biotinylated CRH (human and mouse). The test is described as follows: Octet in-tandem competition on captured CRH; row = 1st mAb (control hIgG1); competitor (2nd mAb) PR302334. A general note: Biolayer interferometry detects binding as a change in optical thickness at a sensor tip.
Test [2] has the same target. The test is described as follows: Octet in-tandem competition on captured CRH; row = 1st mAb (control hIgG1); competitor (2nd mAb) PR302341-34.
Test [3] shares this target. The test is described as follows: Octet in-tandem competition on captured CRH; row = 1st mAb (control hIgG1); competitor (2nd mAb) PR303394.
Test [4] shares this target. The test can be described thus: Octet in-tandem competition on captured CRH; row = 1st mAb (control hIgG1); competitor (2nd mAb) PR005660.
Test [5] shares this target. The test is described as follows: Octet in-tandem competition on captured CRH; row = 1st mAb (control hIgG1); competitor (2nd mAb) PR006669.
For test [6] the target is unchanged. The test can be described thus: Octet in-tandem competition on captured CRH; row = 1st mAb (control hIgG1); competitor (2nd mAb) PR301777.
Test [7] shares this target. The test can be described thus: Octet in-tandem competition on captured CRH; row = 1st mAb (control hIgG1); competitor (2nd mAb) PR302309-8.

Chain of biotinylated CRH (human and mouse) (P01143 145-185): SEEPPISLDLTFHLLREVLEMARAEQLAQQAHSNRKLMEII

Take “unrelated human IgG1 (negative control) (antibody)”: the % Inhibition in test [1] turned out to be 8%; in test [2] it was 12%; in test [3], 10%; in test [4], 12%; in test [5] it was 9%; in test [6], 9%. In test [7], the % Inhibition is 15%.

A word on the % Inhibition: it is the change of the read-out against control, counted positive when it falls. Low values mean a response near the control, high ones a response far below the control.
